Source: patent US20140341881A1 (DERMADIS, published 2014)

T1: human kallikrein 14 (hK14) (human, UniProt Q9P0G3 25-251, limits assumed)
T1 construct: range counted on GenBank AAK48524 (printed), which may differ from the UniProt numbering; also called recombinant hK14
T1 sequence (looked up): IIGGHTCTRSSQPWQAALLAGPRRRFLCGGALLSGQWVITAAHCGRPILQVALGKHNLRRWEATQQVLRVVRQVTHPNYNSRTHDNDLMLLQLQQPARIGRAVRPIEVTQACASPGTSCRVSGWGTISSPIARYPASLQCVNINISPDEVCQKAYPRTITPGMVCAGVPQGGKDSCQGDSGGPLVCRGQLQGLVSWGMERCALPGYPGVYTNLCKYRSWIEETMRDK

T2: human neutrophil elastase (HNE) (human, UniProt P08246 30-247, limits assumed)
T2 sequence (looked up): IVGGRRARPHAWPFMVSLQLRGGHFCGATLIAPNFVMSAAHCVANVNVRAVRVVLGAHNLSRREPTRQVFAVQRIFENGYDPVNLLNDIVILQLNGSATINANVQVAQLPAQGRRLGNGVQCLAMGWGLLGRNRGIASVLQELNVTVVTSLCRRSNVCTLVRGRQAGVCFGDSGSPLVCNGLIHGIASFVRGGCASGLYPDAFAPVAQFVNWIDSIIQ

T3: human kallikrein 5 (hK5) (human, UniProt Q9Y337 67-293, limits assumed)
T3 sequence (looked up): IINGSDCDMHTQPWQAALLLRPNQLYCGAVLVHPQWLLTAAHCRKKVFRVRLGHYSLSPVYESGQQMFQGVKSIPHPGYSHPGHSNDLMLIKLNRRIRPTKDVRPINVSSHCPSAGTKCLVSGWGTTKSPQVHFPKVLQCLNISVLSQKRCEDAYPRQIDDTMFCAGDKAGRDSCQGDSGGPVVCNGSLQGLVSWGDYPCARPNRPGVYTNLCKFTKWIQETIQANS

T4: human kallikrein 13 (hK13) (human, UniProt Q9UKR3 26-277, limits assumed)
T4 sequence (looked up): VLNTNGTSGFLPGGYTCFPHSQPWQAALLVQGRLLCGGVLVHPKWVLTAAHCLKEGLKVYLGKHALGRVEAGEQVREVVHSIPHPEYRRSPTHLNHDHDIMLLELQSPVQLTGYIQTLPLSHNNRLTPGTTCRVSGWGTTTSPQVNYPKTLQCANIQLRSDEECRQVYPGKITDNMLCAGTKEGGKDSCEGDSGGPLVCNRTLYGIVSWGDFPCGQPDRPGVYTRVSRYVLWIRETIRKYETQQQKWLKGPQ

T5: human kallikrein 8 (hK8) (human, UniProt O60259 33-260)
T5 sequence (looked up): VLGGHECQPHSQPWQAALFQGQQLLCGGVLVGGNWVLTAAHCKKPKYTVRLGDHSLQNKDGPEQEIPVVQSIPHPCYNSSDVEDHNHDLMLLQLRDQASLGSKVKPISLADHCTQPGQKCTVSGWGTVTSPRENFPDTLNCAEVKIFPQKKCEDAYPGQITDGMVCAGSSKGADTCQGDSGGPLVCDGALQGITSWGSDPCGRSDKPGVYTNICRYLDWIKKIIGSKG


Columns and labels:
[1] = target: T1, human kallikrein 14 (hK14); experiment: residual hK14 activity after 4 h at 37 C against [I0]/[E0]
Experimental: (§1) SI values of rAAT, rACT, and their variants were determined with hK14 incubating the protease with varying concentrations of inhibitor. After an incubation of 4 hours at 37° C. in reaction buffer (50 mM Tris, pH 7.5, 150 mM NaCl, 0.05% Triton X-100, 0.01% BSA), the residual activity was detected by the addition of fluorescent substrate (Boc-Val-Pro-Arg-AMC). Fluorescence was measured with excitation at 340 nm (±15) and emission at 485 nm (±10) in black 96 well plates using a microplate fluorescence reader FLₓ800 (Bio-Tek Instruments, Inc.). The SI value corresponds to the abscissa intercept of the linear regression analysis of fractional velocity (velocity of inhibited enzyme reaction (vi)/velocity of uninhibited enzyme reaction (v₀)) vs. the molar ratio of the inhibitor to enzyme ([I₀]/[E₀]).

[2] = target: T6, human plasma kallikrein (PK) (human, UniProt P03952 20-638); experiment: cell-based or functional assay
thrombin [3] = experiment: cell-based or functional assay
[4] = target: T2, human neutrophil elastase (HNE); experiment: cell-based or functional assay
[5] = target: T7, human chymotrypsin (Chtr) (human, UniProt P17538 19-263); experiment: cell-based or functional assay
[6] = target: T8, urokinase plasminogen activator (uPA) (UniProt P00749 21-431, limits assumed); experiment: cell-based or functional assay
[7] = target: T1, human kallikrein 14 (hK14); experiment: cell-based or functional assay
[8] = target: T1, human kallikrein 14 (hK14); experiment: residual hK14 activity against [I0]/[E0]
Experimental: as §1

human kallikrein 5 (hK5) = target: T3, human kallikrein 5 (hK5); experiment: cell-based or functional assay
[9] = target: T4, human kallikrein 13 (hK13); experiment: cell-based or functional assay
[10] = target: T9, prostate specific antigen (PSA, hK3) (human, UniProt P07288 25-261); experiment: cell-based or functional assay
[11] = target: T6, human plasma kallikrein (PK); experiment: cell-based or functional assay; remark: listed apart in the source
human kallikrein 6 (hK6) = human kallikrein 6 (hK6) (human, UniProt Q92876 22-244); experiment: cell-based or functional assay
thrombin [12] = experiment: cell-based or functional assay; remark: listed apart in the source
[13] = target: T2, human neutrophil elastase (HNE); experiment: cell-based or functional assay; remark: listed apart in the source
human kallikrein 2 (hK2) [14] = target: T10, human kallikrein 2 (hK2) (human, UniProt P20151 25-261); experiment: cell-based or functional assay
human kallikrein 8 (hK8) = target: T5, human kallikrein 8 (hK8); experiment: cell-based or functional assay
[15] = target: T7, human chymotrypsin (Chtr); experiment: cell-based or functional assay; remark: listed apart in the source
[16] = target: T1, human kallikrein 14 (hK14); experiment: cell-based or functional assay; remark: listed apart in the source
[17] = target: T7, human chymotrypsin (Chtr); experiment: residual enzyme activity against [I]o/[E]o, fluorogenic substrate
Experimental: The stoichiometry of inhibition (SI) values were determined for the inhibition of rACTWT and its variants with hK2 and different other enzymes. An initial test was made with a molar excess of rACT (100 fold) over hK2, PSA, hK1, chymotrypsin (Chtr), plasma kallikrein (PK), urokinase (uPA) and human neutrophile elastase (HNE) enzymes. The reaction was carried out for 30 min at 25° C. (90 min at 37° C. for PSA) in reaction buffer (50 mM Tris pH 7.5, 150 mM NaCl, 0,05% Triton X-100, 0.01% BSA) and residual enzyme activity was measured by adding fluorescent substrates (Z-Phe-Arg-AMC for hK1, hK2 and PK, Suc-Ala-Ala-Pro-Phe-AMC for Chtr, Z-Gly-Gly-Arg-AMC for uPA, MeOSuc-Ala-Ala-Pro-Val-AMC for HNE, and CFP-TFRSA-YFP (TFRSA SEQ ID NO:137) for PSA). Activity of enzyme in presence of inhibitors was compared to uninhibited reaction. For reactions where an inhibition was observed, SI was determined by incubating different concentrations of recombinant serpins. Using linear regression analysis of fractional activity (velocity of inhibited enzyme reaction/velocity of uninhibited enzyme reaction) versus the molar ratio of the inhibitor to enzyme ([Iₒ]/[Eₒ]), the stoichiometry of inhibition, corresponding to the abscissa intercept, was obtained.

[18] = target: T9, prostate specific antigen (PSA, hK3); experiment: cell-based or functional assay; remark: listed apart in the source
human kallikrein hK1 = human kallikrein hK1 (human, UniProt P06870 25-262); experiment: cell-based or functional assay
human kallikrein 2 (hK2) [19] = target: T10, human kallikrein 2 (hK2); experiment: cell-based or functional assay; remark: listed apart in the source
[20] = target: T7, human chymotrypsin (Chtr); experiment: cell-based or functional assay; remark: listed apart in the source
[21] = target: T8, urokinase plasminogen activator (uPA); experiment: cell-based or functional assay; remark: listed apart in the source

T6 sequence (P03952 20-638 limits assumed): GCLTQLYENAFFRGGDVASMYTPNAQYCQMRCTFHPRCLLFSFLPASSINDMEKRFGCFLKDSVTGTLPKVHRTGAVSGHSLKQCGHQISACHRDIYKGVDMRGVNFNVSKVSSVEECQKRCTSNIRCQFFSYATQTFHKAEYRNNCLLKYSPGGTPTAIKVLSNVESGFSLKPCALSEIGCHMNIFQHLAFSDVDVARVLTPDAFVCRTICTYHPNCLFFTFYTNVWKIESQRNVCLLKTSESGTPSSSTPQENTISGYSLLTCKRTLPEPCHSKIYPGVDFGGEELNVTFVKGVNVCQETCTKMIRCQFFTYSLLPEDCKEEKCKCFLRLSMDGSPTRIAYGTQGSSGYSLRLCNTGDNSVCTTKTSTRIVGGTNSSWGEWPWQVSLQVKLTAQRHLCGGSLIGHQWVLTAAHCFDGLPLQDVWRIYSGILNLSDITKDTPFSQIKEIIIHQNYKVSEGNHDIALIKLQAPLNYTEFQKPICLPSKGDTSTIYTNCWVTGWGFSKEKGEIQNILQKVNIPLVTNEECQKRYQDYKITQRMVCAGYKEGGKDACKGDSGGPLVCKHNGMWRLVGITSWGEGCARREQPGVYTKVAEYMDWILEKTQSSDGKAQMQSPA
T7 sequence (P17538 19-263): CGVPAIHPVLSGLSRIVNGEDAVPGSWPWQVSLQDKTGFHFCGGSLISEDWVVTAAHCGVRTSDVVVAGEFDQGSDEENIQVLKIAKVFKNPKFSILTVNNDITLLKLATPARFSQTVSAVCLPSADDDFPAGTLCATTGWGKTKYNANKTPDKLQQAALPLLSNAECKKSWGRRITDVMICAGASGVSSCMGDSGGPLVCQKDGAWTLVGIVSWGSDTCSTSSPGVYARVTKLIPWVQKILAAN

SI (stoichiometry of inhibition) [1]	% Inhibition [2] [%]	% Inhibition (thrombin [3]) [%]	% Inhibition [4] [%]	% Inhibition [5] [%]	% Inhibition [6] [%]	% Inhibition [7] [%]	SI (stoichiometry of inhibition) [8]	Percentage inhibition (human kallikrein 5 (hK5)) [%]	Percentage inhibition [9] [%]	Percentage inhibition [10] [%]	Percentage inhibition [11] [%]	Percentage inhibition (human kallikrein 6 (hK6)) [%]	Percentage inhibition (thrombin [12]) [%]	Percentage inhibition [13] [%]	Percentage inhibition (human kallikrein 2 (hK2) [14]) [%]	Percentage inhibition (human kallikrein 8 (hK8)) [%]	Percentage inhibition [15] [%]	Percentage inhibition [16] [%]	Binder	further results
7.4	100	0	0	19	0	100	7.4	100	30	0	100	100	0	0	19	36	19	100	AATE8 (other, human, mature; also called rAATE8) HHHHHHEDPQGDAAQKTDTSHHDQDHPTFNKITPNLAEFAFSLYRQLAHQSNSTNIFFSPVSIATAFAMLSLGTKADTHDEILEGLNFNLTEIPEAQIHEGFQELLRTLNQPDSQLQLTTGNGLFLSEGLKLVDKFLEDVKKLYHSEAFTVNFGDTEEAKKQINDYVEKGTQGKIVDLVKELDRDTVFALVNYIFFKGKWERPFEVKDTEEEDFHVDQVTTVKVPMMKRLGMFNIQHCKKLSSWVLLMKYLGNATAIFFLPDEGKLQHLENELTHDIITKFLENEDRRSASLHLPKLSITGTYDLKSVLGQLGITKVFSNGADLSGVTEEAPLKLSKAVHKAVLTIDEKGTEAAGAMFLEALQRAIPPEVKFNKPFVFLMIEQNTKSPLFMGKVVNPTQK	
1.2	0	0	0	100	0	100	1.2	30	0	0	0	0	0	0	0	0	100	100	AATG9 (other, human, mature; also called rAATG9) HHHHHHEDPQGDAAQKTDTSHHDQDHPTFNKITPNLAEFAFSLYRQLAHQSNSTNIFFSPVSIATAFAMLSLGTKADTHDEILEGLNFNLTEIPEAQIHEGFQELLRTLNQPDSQLQLTTGNGLFLSEGLKLVDKFLEDVKKLYHSEAFTVNFGDTEEAKKQINDYVEKGTQGKIVDLVKELDRDTVFALVNYIFFKGKWERPFEVKDTEEEDFHVDQVTTVKVPMMKRLGMFNIQHCKKLSSWVLLMKYLGNATAIFFLPDEGKLQHLENELTHDIITKFLENEDRRSASLHLPKLSITGTYDLKSVLGQLGITKVFSNGADLSGVTEEAPLKLSKAVHKAVLTIDEKGTEAAGAMFLETVDYAIPPEVKFNKPFVFLMIEQNTKSPLFMGKVVNPTQK	
		18		100	0			7	0	100		24	18		0	0	100		rACTWT (recombinant wild type alpha-1-antichymotrypsin) (other, human, also called wild type rACT; wild type ACT) HHHHHHHPNSPLDEENLTQENQDRGTHVDLGLASANVDFAFSLYKQLVLKAPDKNVIFSPLSISTALAFLSLGAHNTTLTEILKGLKFNLTETSEAEIHQSFQHLLRTLNQSSDELQLSMGNAMFVKEQLSLLDRFTEDAKRLYGSEAFATDFQDSAAAKKLINDYVKNGTRGKITDLIKDLDSQTMMVLVNYIFFKAKWEMPFDPQDTHQSRFYLSKKKWVMVPMMSLHHLTIPYFRDEELSCTVVELKYTGNASALFILPDQDKMEEVEAMLLPETLKRWRDSLEFREIGELYLPKFSISRDYNLNDILLQLGIEEAFTSKADLSGITGARNLAVSQVVHKAVLDVFEEGTEASAATAVKITLLSALVETRTIVRFNRPFLMIIVPTDTQNIFFMSKVTNPKQA	SI (stoichiometry of inhibition) [17]: 2; INHIBITION % [18]: 80%; INHIBITION % (human kallikrein hK1): 0%; INHIBITION % (human kallikrein 2 (hK2) [19]): 0%; INHIBITION % [20]: 100%; INHIBITION % [21]: 0%
